B1: unnamed (protein)
chain: MKQFSAKHALAVVVTAGHALAASTQGISEDLYTRLVEMATISQAAYADLCNIPSTIIKGEKIYNSQTDINGWILRDDSSKEIITVFRGTGSDTNLQLDTNYTLTPFDTLPQCNGCEVHGGYYIGWVSVQDQVESLVKQQVSQYPDYALTVTGHSLGASLAALTAAQLSATYDNIRLYTFGEPRSGNQAFASYMNDAFQASSPDTTQYFRVTHANDGIPNLPPVEQGYAHGGVEYWSVDPYSAQNTFVCTGDEVQCCEAQGGQGVNNAHTTYFGMTSGACTW
B2: unnamed (protein)
chain: MKQFSAKHALAVVVTAGHALAASTQGISEDLYTRLVEMATISQAAYADLCNIPSTIIKGEKIYNSQTDINGWILRDDSSKEIITVFRGTGSDRNLQLDTNYTLTPFDTLPQCNGCEVHGGYYIGWVSVQDQVESLVKQQVSQYPDYALTVTGHSLGASLAALTAAQLSATYDNIRLYTFGEPRSGNQAFASYMNDAFQASSPDTTQYFRVTHANDGIPNLPPVEQGYAHGGVEYWSVDPYSAQNTFVCTGDEVQCCEAQGGQGVNNAHTTYFGMTSGACTW
B3: unnamed (protein)
chain: MKQFSAKHALAVVVTAGHALAASTQGISEDLYTRLVEMATISQAAYADLCNIPSTIIKGEKIYNSQTDINGWILRDDSSKEIITVFRGTGSDTNLQLNTNYTLTPFDTLPQCNGCEVHGGYYIGWVSVQDQVESLVKQQVSQYPDYALTVTGHSLGASLAALTAAQLSATYDNIRLYTFGEPRSGNQAFASYMNDAFQASSPDTTQYFRVTHANDGIPNLPPVEQGYAHGGVEYWSVDPYSAQNTFVCTGDEVQCCEAQGGQGVNNAHTTYFGMTSGACTW
B4: unnamed (protein)
chain: MKQFSAKHALAVVVTAGHALAASTQGISEDLYTRLVEMATISQAAYADLCNIPSTIIKGEKIYNSQTDINGWILRDDSSKEIITVFRGTGSDTNLQLDTNFTLTPFDTLPQCNGCEVHGGYYIGWVSVQDQVESLVKQQVSQYPDYALTVTGHSLGASLAALTAAQLSATYDNIRLYTFGEPRSGNQAFASYMNDAFQASSPDTTQYFRVTHANDGIPNLPPVEQGYAHGGVEYWSVDPYSAQNTFVCTGDEVQCCEAQGGQGVNNAHTTYFGMTSGACTW
B5: unnamed (protein)
chain: MKQFSAKHALAVVVTAGHALAASTQGISEDLYTRLVEMATISQAAYADLCNIPSTIIKGEKIYNSQTDINGWILRDDSSKEIITVFRGTGSITNLQLDTNYTLTPFDTLPQCNGCEVHGGYYIGWVSVQDQVESLVKQQVSQYPDYALTVTGHSLGASLAALTAAQLSATYDNIRLYTFGEPRSGNQAFASYMNDAFQASSPDTTQYFRVTHANDGIPNLPPVEQGYAHGGVEYWSVDPYSAQNTFVCTGDEVQCCEAQGGQGVNNAHTTYFGMTSGACTW
B6: unnamed (protein)
chain: MKQFSAKHALAVVVTAGHALAASTQGISEDLYTRLVEMATISQAAYADLCNIPSTIIKGEKIYNSQTDINGWILRDDSSKEIITVFRGTGSDTNLQLITNYTLTPFDTLPQCNGCEVHGGYYIGWVSVQDQVESLVKQQVSQYPDYALTVTGHSLGASLAALTAAQLSATYDNIRLYTFGEPRSGNQAFASYMNDAFQASSPDTTQYFRVTHANDGIPNLPPVEQGYAHGGVEYWSVDPYSAQNTFVCTGDEVQCCEAQGGQGVNNAHTTYFGMTSGACTW

substrate: 2-(1-Naphthyl)butanoic acid; conditions: pH 5; 37 °C

Protein	Km	kcat	kcat/Km
B1	330 µM	2.33 s⁻¹	7060 s⁻¹ M⁻¹
B2	630 µM	3.77 s⁻¹	5980 s⁻¹ M⁻¹
B5	290 µM	2.7 s⁻¹	9310 s⁻¹ M⁻¹

substrate: alpha-Naphthyl caprylate; conditions: pH 5; 37 °C

Protein	Km	kcat	kcat/Km
B1	79 µM	0.85 s⁻¹	10800 s⁻¹ M⁻¹
B2	17 µM	0.32 s⁻¹	18800 s⁻¹ M⁻¹
B4	20 µM	1.09 s⁻¹	54500 s⁻¹ M⁻¹
B5	50 µM	0.64 s⁻¹	12800 s⁻¹ M⁻¹

substrate: 2-(1-Naphthyl)butanoic acid; conditions: pH 7; 37 °C

Protein	Km	kcat	kcat/Km
B3	180 µM	32.1 s⁻¹	178000 s⁻¹ M⁻¹

same assay, conditions: pH 6; 37 °C

Protein	Km	kcat	kcat/Km
B4	630 µM	3.38 s⁻¹	5370 s⁻¹ M⁻¹

same assay, conditions: pH 7.5; 37 °C

Protein	Km	kcat	kcat/Km
B6	150 µM	3.72 s⁻¹	24800 s⁻¹ M⁻¹
